Data from the supplement of paper PMC7125110.
± gives the standard error. For some of these results: Variants at the floor of the assay were thinned out.

B1: glmS ribozyme (parent)
chain: AUAAAAGCGCCAGAACUACAGAAAUGUAGUUGACGAGGAGGAGGUUUAUCGAAUUUUCGGCGGAUGCCUCCAAA

How the values were obtained:
Details in all cases: with glucosamine-6-phosphate
[1] = variants of: B1; experiment: self-cleavage kobs at 40 uM GlcN6P; higher = faster cleavage; RNA array
Summary of the method: (§1)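 Tiles of sequenced MiSeq chips were imaged over ~14 h at 37 °C. On them, barcoded ribozyme variants had been transcribed in situ by E. coli RNA polymerase and were tracked via a hybridised Cy3 probe while glucosamine-6-phosphate (40 μM to 10 mM) in HEPES/KCl/Mg(OAc)2 buffer flowed in. Per-tile medians, normalised to baseline and to non-cleaving reference variants, were fit to one- or two-exponential decays for kobs, and weighted Michaelis–Menten fits gave kcat and KM.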

[2] = variants of: B1; experiment: self-cleavage kobs at 10000 uM GlcN6P; higher = faster cleavage; RNA array
Summary of the method: as §1

[3] = variants of: B1; experiment: self-cleavage kobs at 640 uM GlcN6P; higher = faster cleavage; RNA array
Summary of the method: as §1

[4] = variants of: B1; experiment: kcat; higher = faster cleavage; RNA array
Summary of the method: as §1

[5] = variants of: B1; experiment: KM; higher = weaker cofactor use; RNA array
Summary of the method: as §1

[6] = variants of: B1; experiment: self-cleavage kobs at 2500 uM GlcN6P; higher = faster cleavage; RNA array
Summary of the method: as §1

[7] = variants of: B1; experiment: self-cleavage kobs at 160 uM GlcN6P; higher = faster cleavage; RNA array
Summary of the method: as §1

Variant	self-cleavage kobs at 40 uM GlcN6P [1] [s⁻¹]	self-cleavage kobs at 10000 uM GlcN6P [2] [s⁻¹]	self-cleavage kobs at 640 uM GlcN6P [3] [s⁻¹]	kcat [4] [s⁻¹]	KM [5] [µM]	self-cleavage kobs at 2500 uM GlcN6P [6] [s⁻¹]	self-cleavage kobs at 160 uM GlcN6P [7] [s⁻¹]
A6U G13C U69C	< 1e-05	< 1e-05					
G62U A64U	< 1e-05	< 1e-05	< 1e-05				
U30G U65A	3.04e-05 ± 1.2e-05	0.000797 ± 0.0001	0.000157 ± 2.9e-05	0.00108 ± 0.00019	3500 ± 1100	0.000483 ± 0.00014	
C68G U69C		< 1e-05		1.67e-05 ± 1.9e-06			
G13U A33G	< 1e-05	< 1e-05	< 1e-05			< 1e-05	< 1e-05
G7A C16A					275 ± 120		
G66C	2.55e-05 ± 1.8e-06	0.000712 ± 1.8e-05	0.000244 ± 6.2e-06	0.000832 ± 7.4e-05	1470 ± 210	0.000709 ± 3.8e-05	8.08e-05 ± 2.4e-06
C34U A52G C68G	0.000541 ± 0.00018	0.000197 ± 6e-05					
A6G C16G G66C	< 1e-05						
G7A C8G A12C	< 1e-05						
C61G G62C A64G U65A G66U C67G		< 1e-05	< 1e-05	1.06e-05 ± 1.8e-06			
A15U C16A		0.000959 ± 9.8e-05	0.000244 ± 2.2e-05	0.00121 ± 9.4e-05	2740 ± 310	0.000544 ± 7e-05	6.19e-05 ± 8.7e-06
G7A C50A	< 1e-05			< 1e-05		< 1e-05	< 1e-05
G29U U46C		0.000242 ± 2.9e-05	9.83e-05 ± 1.4e-05	0.000262 ± 1.5e-05	1090 ± 140	0.000156 ± 4.3e-05	3.52e-05 ± 1.6e-05
A6G U56A		0.00019 ± 3.6e-05	4.69e-05 ± 1.4e-05	0.000242 ± 1.2e-05	2780 ± 290	0.000114 ± 2.4e-05	
G37C G40U					5820 ± 2300		
C34U C58G		< 1e-05		< 1e-05			
C8U A42U G44A U56C	< 1e-05						
A42U G59A					145 ± 23		
A33G U56G	< 1e-05	< 1e-05	< 1e-05				
A33U U45A	< 1e-05	0.000137 ± 1.5e-05		0.000201 ± 3.4e-05	4400 ± 1700	7.97e-05 ± 1.2e-05	
